Data on 41 sequences can be found in the nanobody polyreactivity screen of Harvey et al. (2022).

This data set can be described thus: yeast display, Sf9 membrane polyspecificity reagent, FACS + sequencing; frameworks hold sequencing errors. A digest of the protocol: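 Nanobodies from a synthetic yeast display library (Saccharomyces cerevisiae BJ5465), induced 36–48 hours with galactose, were stained 1 hour at 4 °C with 10% biotinylated, detergent-solubilized Sf9 membrane reagent, enriched on streptavidin microbeads, then FACS-sorted. Anti-HA (expression) and streptavidin (reagent binding) fluorescence set low and high (top ~1%) gates. Polyreactivity labels come from the gate of origin. Genes were colony-PCR amplified, MiSeq 2 × 250 sequenced and filtered by CDR length.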
For the sequence “QVQLVESGGGLVQAGGSLRLSCADSGSTFWFYERGWYSQAPGKVRELVAVISNSGSTYYADSVKGLFTISRDNAKNTVYLQMNSLKPEDTAVYYCNKDGGGDSYWYDYWGQGTQVTVSS”, the “polyreactivity (PSR sort gate)” value was “low polyreactivity”.

Consider “QVQLVESGGGLVQAGGSLRLSCADSGSTFWLYAMGWYRQAPGKERELVASISSRGRSTYYADSVKGRFTISRDNAKNTVYLQMNSLKPEDTAVYYCAAKDIRYDDDYWGQGTQVTVSS”, for which the “polyreactivity (PSR sort gate)” value is recorded as “low polyreactivity”.

In the case of “QVQLVESGGGLVQAGGSLRLSCADSGSTFYRYGMASSRHAPGKERELVAAISWRGGITYYADSVKGRFTISRENAMHTVYLQRNSLKPQDSAVYYCAADGPYTGDGALDYWGQGTQVTVSS”, the “polyreactivity (PSR sort gate)” value is “high polyreactivity”.

Regarding “QVQLVESGGGLVQAGGSLRLSCADSGSTFYVYSMGWYRQAPGKERELVAAITGSTGSTYYADSVKGRFTISRDNAKNTVYLQMNSLKPVDTAVYYCAADFYGVPIIYDYWGQGTQVTLSS”, the “polyreactivity (PSR sort gate)” value is reported as “low polyreactivity”.

Regarding “QVQLVESGGGLVQAGGSLRLSCADSGSTIPKYAMGWSRQAPGKERELVAVITSGGSTYYADSVKGRFTISRDNAKNTVYLQMISLKPEDTAVYYCAARKYRRFDYWGQGTQVTVSS”, the “polyreactivity (PSR sort gate)” value was “high polyreactivity”.

In the case of “QVQLVESGGGLVQAGGSLRLSCADSGTTFVKYAMGWYRQAPGKERELVAAISSRGGRTYYADSVKGRFTISRDNAKNTVYLQMNSLKPEDTEVYYCNKGTRLDGEYEYWGHGTQVTVSS”, the “polyreactivity (PSR sort gate)” value is listed as “high polyreactivity”.

Regarding “QVQLVESGGGLVQAGGSLRLSCADSGYIFDAYAMGWYRQAPGKERELVAAIDIGGSTYYADSVKGRFTISRDNAKNTVYLQMNSLKPEDTAVYYCAEWFYFDQWDYAREYWGQGTQVTVSS”, the “polyreactivity (PSR sort gate)” value was “low polyreactivity”.

With “QVQLVESGGGLVQAGGSLRLSCAGSGNIFSTYAMGWYRPAPGKVRELVASISENGGSTYYADSVKGRFTISRDNAKNTVYLQMNSLKPEDTAVYYCNADAYVYFDDGDYWGQGTQVTVSS”, the “polyreactivity (PSR sort gate)” value is reported as “low polyreactivity”.

As to “QVQLVESGGGLVQAGGSLRLSCAGSGRIFARNVMGWYGQAPGKVRELVAAISRSGGSTYYADSVKGRFTISRDNAKNTVYLQMNSLKPEDTAFYYCNAYYPIRSSPYGYYYWGQGTQVTVSS”, the “polyreactivity (PSR sort gate)” value is reported as “high polyreactivity”.

In the case of “QVQLVESGGGLVQAGGSLRLSCAGSGRIFYVYAMGWYRQAPGKERELVAAISRGGSTNYADSVKGRFTISRDNAKNTVYLQMNSLKPEDTAVYYCAASSLPHYSFRHSYLYEYWGQGTQVTVSS”, the “polyreactivity (PSR sort gate)” value is “low polyreactivity”.

For the sequence “QVQLVESGGGLVQAGGSLRLSCAGSGSTFDSYAMGWYRQAPGKERELVAAITRSDASTYYADSVKGRFTISRDNAKNTVYLQMNSLKPEDTAVYYCAADTSLVYYGGDWEYYYWGQGTQVTVSS”, the “polyreactivity (PSR sort gate)” value is “low polyreactivity”.

For “QVQLVESGGGLVQAGGSLRLSCAGSGSTFRSNAMGWYRQAPGKERELVAAISQRGGSTYYADSVKGRFTISRDNAKNTVYLQMNSLKPEDTAVYYCAAQYFRRSGYWGQGTQVTVSS”, the “polyreactivity (PSR sort gate)” value was “high polyreactivity”.

With “QVQLVESGGGLVQAGGSLRLSCAGSGSTFVVYSIGWYRQAPGKERELVAAITRGGGSTYYAYSVKGRFTISRDNAKNTVYLLMNSLKPEDTAVYYCAAYQLPGLRTSFEYWGQGTQVTVSS”, the “polyreactivity (PSR sort gate)” value is listed as “low polyreactivity”.

Turning to “QVQLVESGGGLVQAGGSLRLSCAGSGSTVSANALGSYRQAPGKDRELVAAISRRGGSTNYADSVKGRFTISRDNAKNTVYLQMNSLKPEDTAVYYCAGLYVPRSPFSYDYWGQGTQVTVSS”, the “polyreactivity (PSR sort gate)” value was “high polyreactivity”.

Consider “QVQLVESGGGLVQAGGSLRLSCAGSGYILFAYAMGWSRQAPGKERELVATITTSGGITYYADSVKGRFTISRDNAKNTVYLQMNSLKPEDTEVYYWAAAEGGGLVTYDYWGQGSQVTVSS”, for which the “polyreactivity (PSR sort gate)” value was “low polyreactivity”.

As for “QVQLVESGGGLVQAGGSLRLSCAGYGRIFEDNSMVSYRQPPGKERELVAAISSGDSTKYADSVKGRFTISRDNAKTTVYLQIKSLKQEDTAVYYCAAERNHGLVGSESVGRNVYWGHGTQVTVSS”, the “polyreactivity (PSR sort gate)” value is “low polyreactivity”.

As to “QVQLVESGGGLVQAGGSLRLSCAHSGFTFTRNAMGWYRQSPGKETELVATISGSGGGTYYADSVKGRFTISRDNAKNTVYLQMNRLKPEDTAVYYCNARRLYSWQGTARYDFWGQGTQVTVSS”, the “polyreactivity (PSR sort gate)” value was “low polyreactivity”.

As for “QVQLVESGGGLVQAGGSLRLSCAPSGATFRRNAMGWYRQAPGKERELVAAITWRGGSTSYADSVKGRFTISRDNAKNTVYLQMNSLKREDTAVYYCAAVKGHSQVLSYGYWGQGTQVTVSS”, the “polyreactivity (PSR sort gate)” value is on record as “low polyreactivity”.

On to “QVQLVESGGGLVQAGGSLRLSCAPSGFIFAKYTMGWSRHAPGKERELVAAISANGGNTYYADSVKGRFTITRDNAKNTVYLQMNSLNPEDTAVYYCAALYKYSSYFDYWGQGTLVTVSS”, for which the “polyreactivity (PSR sort gate)” value is reported as “high polyreactivity”.

With “QVQLVESGGGLVQAGGSLRLSCAPSGFIFARNAMGWYRQAPGKERELVAVISTRGRTYYADSVKGRFTISRDNAKNTVYLQMKRLKPEDTAVYYCNADKVIGYDYWGQGTQVTVSS”, the “polyreactivity (PSR sort gate)” value is listed as “high polyreactivity”.

As for “QVQLVESGGGLVQAGGSLRLSCAPSGFIFSRYAMGWYRQAPGKERELVATITSSGGSTYYADSVKGRFTISRDNAKNTVYLQMNSLKPEDTAVYYCNAKISIRWHYGYYYWGQGTQVTVSS”, the “polyreactivity (PSR sort gate)” value is “high polyreactivity”.

For “QVQLVESGGGLVQAGGSLRLSCAPSGFTFGIYAMGWYRQAPGKERELLADINVSDGSTYYADSVKRRFTISRDNAKNTVYLQMNSLKPEDTAVYYSAAYVYDTIYTSYREYDYWGQGTQVTVST”, the “polyreactivity (PSR sort gate)” value was “low polyreactivity”.

In the case of “QVQLVESGGGLVQAGGSLRLSCAPSGFTFRYNTMAWYRQAPGKERELVAAISSSGSSTYYADSVKGRFTISRDNAKNTVYLQMNSLKPVDTAVYYCNAVHRRTRYGYWGQGTQVTVSS”, the “polyreactivity (PSR sort gate)” value is on record as “high polyreactivity”.

“QVQLVESGGGLVQAGGSLRLSCAPSGGTFALYAMGWYRQAPGKERELVASISFNGGSTYYADSVKGRFTISRDNAKNTVYLQMNSLKPEDTAVYYCNTGYQWGVYESQTAVEDYWGQGTQVTVSS”: the “polyreactivity (PSR sort gate)” value is reported as “low polyreactivity”.

“QVQLVESGGGLVQAGGSLRLSCAPSGGTFIYYAMGWYRQAPGKERELVAAISSGGSTYYADSVKGRFTISRDNAKNTVYLQMNSLKPEDTAVYYCAKRRAVQIVDLEYWRQGTQVTVSS”: the “polyreactivity (PSR sort gate)” value was “low polyreactivity”.

Consider “QVQLVESGGGLVQAGGSLRLSCAPSGGTFVTYAMGWYIQAPGKERELVAAITTGGSTYYADSVKGRFTISRDNAKNTVYLQMNSLKPEDTAVYYCAAVYTGSGKRYYKGYYWGQGTQVTVSS”, for which the “polyreactivity (PSR sort gate)” value is recorded as “low polyreactivity”.

Consider “QVQLVESGGGLVQAGGSLRLSCAPSGIIAKHNAMGWYRQAPGKERELVAAITSGSITNYADSVKGRFTISRDNAKNTLYLQMNSLKPEDTAVYYCAKRVDAYGWWGRRSGVLSDYWGQGTQVTVSS”, for which the “polyreactivity (PSR sort gate)” value is given as “low polyreactivity”.

Consider “QVQLVESGGGLVQAGGSLRLSCAPSGIILGYYAMGWYRQAPGKERELVAAISSGGRTYYADSVKGRFTISRDNAKNTVYLQMNSLKPEDTAVYYCAADDTRGREEYDYWGQGTQVTVSS”, for which the “polyreactivity (PSR sort gate)” value is “high polyreactivity”.

“QVQLVESGGGLVQAGGSLRLSCAPSGIISIFNVMGWYRQAPGKERELVASITGRGGSTFYADSVKGRFTISRDNAKNTVYLQMNSLKPEDTAVYYCATDTGYTYPVTGLYDYWGQGTQVTVSS”: the “polyreactivity (PSR sort gate)” value is recorded as “low polyreactivity”.

With “QVQLVESGGGLVQAGGSLRLSCAPSGITFRQFTMGWYRQAPGKERELVAAITSSGRTYYADSVKGRFTISLDNAKNTVYLQMNSLKPEDTAVYYCAAGVGGAAHPVSYFTYDYWGQGTQVTVSS”, the “polyreactivity (PSR sort gate)” value is “high polyreactivity”.

Consider “QVQLVESGGGLVQAGGSLRLSCAPSGITFSYSAMGWYRQAPGKERELVAAISGSGTSTYYADSVKGRFTISRDNAKNTVYVQMNSLKPEVTAVYYCAAKGRKSVYSRNSWGQGTQVTVSS”, for which the “polyreactivity (PSR sort gate)” value is listed as “high polyreactivity”.

On to “QVQLVESGGGLVQAGGSLRLSCAPSGITFYKYAMGWYRQAPGKERELVATISRRGGTTYYADSVKGRFTISRDNAKNTVYLQMNSLKPEDTAVYYCNADSRTYRYYWSYGYWGQGTQVTVSS”, for which the “polyreactivity (PSR sort gate)” value is recorded as “high polyreactivity”.

Regarding “QVQLVESGGGLVQAGGSLRLSCAPSGLIFYGYAMGWYRQAPGKERELVAAISCSGGRTYYADSVKGRFTISRDNAKNTVYLQMNSLKPEDTAVYYCNVRNRYRPYLPFWPDDYWGQGTQVTVSS”, the “polyreactivity (PSR sort gate)” value was “high polyreactivity”.

For “QVQLVESGGGLVQAGGSLRLSCAPSGLIFYRYAMGWYRQAPGKERELVAAITRGGSTHYADSVKGRFTISRDNAKFTVYLQMNSLKPEDTAVYYCAATFKGRIYRYEYWGQGTQVTVSS”, the “polyreactivity (PSR sort gate)” value was “high polyreactivity”.

Take “QVQLVESGGGLVQAGGSLRLSCAPSGLTFDVYAMGWYRQAPWKQRELVAAISSIGGSTYYADSVKGRFTISRDTAKNTVYVQMNSLKPEDTAVYYCAAAISLYSYDYWGQGTQVTVSS”: the “polyreactivity (PSR sort gate)” value is “low polyreactivity”.

For the sequence “QVQLVESGGGLVQAGGSLRLSCAPSGLTFKDYTMGWYRQAPGKERELVAAISKSGGRTYYADSVKGRFTISRDNAKNTVYLQMNSLKPEDTAVYYCNADSRTYRYYWSYGYWGQGTQVTVSS”, the “polyreactivity (PSR sort gate)” value is “high polyreactivity”.

Consider “QVQLVESGGGLVQAGGSLRLSCAPSGLTYRRYTMGWYRQAPGKEREFVAAISWGGDSTYYADSVKGRFTISRDNAKNTVYLQLTSLKPEDTAVYYCAADFLYIYNYWGQGTQVTVSS”, for which the “polyreactivity (PSR sort gate)” value is given as “high polyreactivity”.

Consider “QVQLVESGGGLVQAGGSLRLSCAPSGRIFFHYAMGWYRQAPGKERELVAAISRRGGNTYYADSVKGRFTISRDNAKNTVYLQMNRLKPEDTAVYYCAAQYRVGYDYWGQGTQVTVSS”, for which the “polyreactivity (PSR sort gate)” value was “high polyreactivity”.

Turning to “QVQLVESGGGLVQAGGSLRLSCAPSGRIFHQYAMGFYRKSPGKERELVAAITWSGGSTHYADSVKGRYTISRDNAKNTVYLQLNSLKPEDTAVYYCAARKSGGLLDYWGQGTQVTVSS”, the “polyreactivity (PSR sort gate)” value was “low polyreactivity”.

With “QVQLVESGGGLVQAGGSLRLSCAPSGRIFPGYAMGWYRQAPGKERELVAAISTNGGRTYYADSVKGRFTISRDNAKNTVYLQMNSLKPEDTAVYYCNAARAVYTQKRFDSWGQGTQVTVSS”, the “polyreactivity (PSR sort gate)” value is reported as “high polyreactivity”.

Consider “QVQLVESGGGLVQAGGSLRLSCAPSGRIFQWYAMGWYRQAPGKERELVAAIRNGGTTNYADSVKGRFTISRDNAKNTVYLQMNSVIPVDTAVYYCNADKYRTWDFQPRYPGGYWGQGTQVTVSS”, for which the “polyreactivity (PSR sort gate)” value was “low polyreactivity”.
